Columns and labels:
[1] = biological target: PSGL-1/mIgG2b fusion protein co-expressed in CHO-K1 cells with porcine α1,3GalT and core 2 β1,6 GlcNAc transferase (C2 GnTI) (human; mouse) (UniProt Q14242); experiment: sandwich ELISA, fusion protein from CHO-K1 with α1,3GalT and C2 GnTI against fusion protein from CHO-K1 with α1,3GalT alone
[2] = biological target: PSGL-1/mIgG2b fusion protein co-expressed with porcine α1,3 galactosyltransferase (α-Gal substituted) (human; mouse) (UniProt Q14242); experiment: sandwich ELISA, fusion protein made in 293T cells with α1,3GalT against the same made without α1,3GalT
[3] = biological target: PSGL-1/mIgG2b fusion protein co-expressed in CHO-K1 cells with porcine α1,3GalT and core 2 β1,6 GlcNAc transferase (C2 GnTI) (human; mouse) (UniProt Q14242); experiment: sandwich ELISA, fusion protein from CHO-K1 with α1,3GalT and C2 GnTI against fusion protein from CHO-K1 without α1,3GalT
[4] = biological target: PSGL-1/mIgG2b fusion protein co-expressed with porcine α1,3 galactosyltransferase (α-Gal substituted) (human; mouse) (UniProt Q14242); experiment: sandwich ELISA, fusion protein made in CHO cells with α1,3GalT against the same made without α1,3GalT
[5] = biological target: PSGL-1/mIgG2b fusion protein co-expressed with porcine α1,3 galactosyltransferase (α-Gal substituted) (human; mouse) (UniProt Q14242); experiment: sandwich ELISA, fusion protein made in COS cells with α1,3GalT against the same made in COS without α1,3GalT

In the case of “peroxidase-conjugated Griffonia (Bandeiraea) simplicifolia I isolectin B4 (cat.no. L-5391; Sigma)”, the fold increase in α-Gal epitope density (relative O.D., GSA-reactivity/anti-mouse IgG reactivity) [1] is reported as 7.4 fold, the fold increase in relative O.D. (GSA-reactivity/anti-mouse IgG reactivity) [2] is reported as 3.1 fold and the fold increase in α-Gal epitope density (relative O.D., GSA-reactivity/anti-mouse IgG reactivity) [3] is reported as 13 fold. It also gave a fold increase in relative O.D. (GSA-reactivity/anti-mouse IgG reactivity) [4] of 1.8 fold and a fold increase in relative O.D. (GSA-reactivity/anti-mouse IgG reactivity) [5] of 5.3 fold.

Source: US20090280134A1
